Assay results from patent US20070010428A1, “Inhibitors of signal transduction and activator of transcription 3” (priority 2004, published 2007).
[ ]: non-standard residue; d: D form. pY = N[C@@H](Cc1ccc(OP(=O)(O)O)cc1)C(=O)O

B1: Ac-pTyr-Leu-Lys-Thr-Lys-Phe-NH2 (peptide)
chain: Ac-[pY]LKTKF-NH2
SMILES: CC(=O)N[C@@H](Cc1ccc(OP(=O)(O)O)cc1)C(=O)N[C@@H](CC(C)C)C(=O)N[C@@H](CCCCN)C(=O)N[C@H](C(=O)N[C@@H](CCCCN)C(=O)N[C@@H](Cc1ccccc1)C(N)=O)[C@@H](C)O

How the values were obtained:
[1] = target: full length Stat3, P40763; assay: fluorescence polarization, full length Stat3 titrated into the FP probe
[2] = target: Stat3 (as in the EMSA of Table 1), P40763; assay: EMSA: inhibition of Stat3 dimerization and DNA binding, average of two determinations
Sequence of Stat3 (as in the EMSA of Table 1), P40763 (P40763 whole entry): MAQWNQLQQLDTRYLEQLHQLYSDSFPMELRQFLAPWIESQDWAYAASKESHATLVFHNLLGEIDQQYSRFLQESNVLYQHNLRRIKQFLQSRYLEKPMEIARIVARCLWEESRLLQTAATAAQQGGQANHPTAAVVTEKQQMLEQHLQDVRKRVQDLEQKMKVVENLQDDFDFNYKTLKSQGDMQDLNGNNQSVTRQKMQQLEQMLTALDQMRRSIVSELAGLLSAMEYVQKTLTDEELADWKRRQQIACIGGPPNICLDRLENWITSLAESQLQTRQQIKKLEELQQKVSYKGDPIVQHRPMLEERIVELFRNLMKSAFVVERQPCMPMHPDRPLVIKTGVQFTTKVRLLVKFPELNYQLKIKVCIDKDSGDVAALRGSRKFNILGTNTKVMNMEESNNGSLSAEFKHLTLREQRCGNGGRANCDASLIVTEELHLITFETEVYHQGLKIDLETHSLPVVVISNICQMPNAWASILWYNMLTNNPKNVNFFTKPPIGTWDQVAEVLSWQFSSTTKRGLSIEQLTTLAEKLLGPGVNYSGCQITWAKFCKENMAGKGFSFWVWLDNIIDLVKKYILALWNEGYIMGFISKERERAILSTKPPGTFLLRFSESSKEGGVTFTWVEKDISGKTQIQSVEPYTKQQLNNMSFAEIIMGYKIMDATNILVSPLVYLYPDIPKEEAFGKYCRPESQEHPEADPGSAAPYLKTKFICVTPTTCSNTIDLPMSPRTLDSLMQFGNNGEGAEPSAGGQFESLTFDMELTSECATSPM

Sequence of full length Stat3, P40763 (P40763 whole entry): as above

Row | Binder | Kd [1] | IC50 [2]
1 | {fluorescein‑5‑carboxyl}-A[pY]LPQTV-NH2 [fluorescein-5-carboxyl-Ala-pTyr-Leu-Pro-Gln-Thr-Val-NH2] | 0.05 µM | 
2 | B1 |  | 20 µM
3 | YHNQPL (modifications not checked) [Ac-Y(p)HNQPL-NH2 (EGFR Tyr 1086 hexapeptide)] |  | 150 µM
4 | YINQSV (modifications not checked) [Ac-Y(p)INQSV-NH2 (EGFR Tyr 1068 hexapeptide)] |  | 30 µM
